Experimental data reported in the nanobody polyreactivity screen of Harvey et al. (2022).

Assay: yeast display, Sf9 membrane polyspecificity reagent, FACS + sequencing; frameworks hold sequencing errors
How it was run: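 Polyreactivity labels are assigned by the sorting gate from which each nanobody was recovered. The gates were low and high (top ~1%), set on anti-HA fluorescence for expression and streptavidin fluorescence for reagent binding. Before sorting, galactose-induced (36–48 hours) yeast display cells were stained for 1 hour at 4 °C with 10% biotinylated, detergent-solubilized Sf9 membrane reagent.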

**Q.** For “QVQLVESGGGLVQAGGSLRLSCAASGFIFAGYHMAWYRQAPGKERELVAAISSSGANTYYADSVKGRFTISRDNAKNTVYLQMNSLKPEYSAVYYCAALYHWTYDYWGQGTQVTVSS”, which “polyreactivity (PSR sort gate)” value is on record?
**A.** low polyreactivity

**Q.** Which “polyreactivity (PSR sort gate)” value does the source give for “QVQLVESGGGLVQAGGSLRLSCAASGFIFAGYTMGWYRQAPGKERELVAAINSGGSTKYADSVKGRFTISRDNAKNTVYLHMNSLKPEDTAVYYCNADYGWYFLFDYWGQGTQVTVSS” here?
**A.** low polyreactivity

**Q.** For “QVQLVESGGGLVQAGGSLRLSCAASGFIFAHNAMGWYRQAPGKVRELVAAISWGSGSTYYADSVKGRFTISRDNAKITVYLQMNSLKPEDTAVSYCAARAVRYYAWVRGGWTSFDYWGQGTQVTVSS”, which “polyreactivity (PSR sort gate)” value is on record?
**A.** high polyreactivity

**Q.** With “QVQLVESGGGLVQAGGSLRLSCAASGFIFAIYAMGWYRQAPGKERELVAAITSSSSTYADSVKGRFTISRDNAKNTVYLQMNSLKPEDTAVYYCAADTYSYRYSNDYWGQGTQVTVSS” as the sequence, how does the “polyreactivity (PSR sort gate)” value read?
**A.** low polyreactivity

**Q.** Which “polyreactivity (PSR sort gate)” value does the source give for “QVQLVESGGGLVQAGGSLRLSCAASGFIFALYARGWYRQAPGTERELVAAITSSSSTYAASVKGRFTISRDNAKNTVYLQMNSLKPEDTAVYYCAADTYSYRYSNDYWGQGTQVTVSS” here?
**A.** low polyreactivity

**Q.** Which “polyreactivity (PSR sort gate)” value does the source give for “QVQLVESGGGLVQAGGSLRLSCAASGFIFARNTMGWYRQAPGKERELVAAITKSGGSTYYADSVKGRFTISRDNAKNTVYLQMNSLKPEDTAVYYCAARTYTLRGVYFSGYNYWGQGTQVTVSS” here?
**A.** low polyreactivity

**Q.** With “QVQLVESGGGLVQAGGSLRLSCAASGFIFARYAMGWYRQAPGKERELVAAISSGGRTYFADSVKGRFTISRDNAKNTVYLQMNSLKPEDTAVYYCAKRPTNGYGTFDYWGQGTQVTVSS” as the sequence, how does the “polyreactivity (PSR sort gate)” value read?
**A.** high polyreactivity

**Q.** For “QVQLVESGGGLVQAGGSLRLSCAASGFIFASNAMGWYRQAPGKERELVAAINSSGGSTYYADSVKGRFTISRDNAKNTVYLQMNSLKPEDTAVYYCAADVIGDLRWYRDEYWGHGTQVTVSS”, which “polyreactivity (PSR sort gate)” value is on record?
**A.** low polyreactivity

**Q.** Which “polyreactivity (PSR sort gate)” value does the source give for “QVQLVESGGGLVQAGGSLRLSCAASGFIFASYAMGWYRQAPGKERELVAAISWRGGSTYYADSVKGRFTISRDNAKNTVYLQMNSLKPEDTAVYYCNAYVYVGTGRGYDTLDYWGQGTQVTVSS” here?
**A.** low polyreactivity

**Q.** With “QVQLVESGGGLVQAGGSLRLSCAASGFIFATYTMGWYRQAPGKERELVAAITWRGGSTYYADTVKGRFPISRDNAKNTVYLQMNSLKPEDTAVYYCAAQDVNSYRYVEDVYCGQGTQVTVSS” as the sequence, how does the “polyreactivity (PSR sort gate)” value read?
**A.** low polyreactivity

**Q.** For “QVQLVESGGGLVQAGGSLRLSCAASGFIFAWNAMGWYRQAPGKERELVASISSGGGSTYYADSVKGRFTISRDNAKNTVYLQMNSLKPEDTAVYYCAASYAYLRGLHYYKYDSWGQGTQVTVSS”, which “polyreactivity (PSR sort gate)” value is on record?
**A.** low polyreactivity

**Q.** Which “polyreactivity (PSR sort gate)” value does the source give for “QVQLVESGGGLVQAGGSLRLSCAASGFIFAWYAMGWYRQAPGKERELVARISRGGSTYYADSVKGRFTISRDNAKNTVYLHMNSLKPEYTAVYYCTAGAAYTYTRYDYWGQGTQVTVSS” here?
**A.** high polyreactivity

**Q.** With “QVQLVESGGGLVQAGGSLRLSCAASGFIFAWYTMGWYRQAPGKERELVAAISANGGNTYYADSVKGRFTISRDNAKNTVYLQMNSLKPEDTAVYYCAALYKYSSSFDYWGQGTQVTVSS” as the sequence, how does the “polyreactivity (PSR sort gate)” value read?
**A.** high polyreactivity

**Q.** Which “polyreactivity (PSR sort gate)” value does the source give for “QVQLVESGGGLVQAGGSLRLSCAASGFIFAYNAMGWYRQAPGKERELDAAISRSGGSTRYADSVKGRFTISRDNAKNTVYLQMNSLKPEDTAVYYCNVSRYGYGVGRGLYIYDYWGQGTQVTVSS” here?
**A.** high polyreactivity

**Q.** Which “polyreactivity (PSR sort gate)” value does the source give for “QVQLVESGGGLVQAGGSLRLSCAASGFIFAYNAMGWYRQAPGKERELVAAISWSGGSTYYADSVKGRFTISRDNAKNTVYLQMNSLKPEYTAVYYCNAKYLGRRWDGNYNYWGQGTQVTVSS” here?
**A.** high polyreactivity

**Q.** With “QVQLVESGGGLVQAGGSLRLSCAASGFIFAYNIIGWSRHAPGTERELVADISGTGSTNYADSVKGRFTISRDNAKNTVYLQMNSLKPEDTAVYYCAAAKFDVSFWLYFWGQGTQVTVSS” as the sequence, how does the “polyreactivity (PSR sort gate)” value read?
**A.** low polyreactivity

**Q.** With “QVQLVESGGGLVQAGGSLRLSCAASGFIFAYYAMGWYIQAPGKERELVAAISLSGARTYYADSVKGRFTISRDTAKNTVYLQMNSLKPEDTAVYYCAATPWSYEYYYWGQGTQVTVSS” as the sequence, how does the “polyreactivity (PSR sort gate)” value read?
**A.** low polyreactivity

**Q.** Which “polyreactivity (PSR sort gate)” value does the source give for “QVQLVESGGGLVQAGGSLRLSCAASGFIFAYYAMGWYRQAPGKERELVAGINRTGSTNYADSVKGRFSISRDNAKNTVYLQMNSLKPEDTAVYYCAARGYRSGGGYNYWGQGTQVTVSS” here?
**A.** high polyreactivity

**Q.** For “QVQLVESGGGLVQAGGSLRLSCAASGFIFDANAMGWYRQAPGKERELVAAISRRGGRTYYADSVKGRFTISRDNAKNTVYLQMNSLKPEDTAVYYCAADWPDASRYGGGYWGQGTQVTVSS”, which “polyreactivity (PSR sort gate)” value is on record?
**A.** high polyreactivity

**Q.** Which “polyreactivity (PSR sort gate)” value does the source give for “QVQLVESGGGLVQAGGSLRLSCAASGFIFDDNTMGWYRQAPGKERELVAAISYSAGSTYYADSVKGRFTISRDNAKNTVYLQMNSLKPEDTAVYYCNKDAASWDYYGGNDYWGQGTQVTVSS” here?
**A.** low polyreactivity

**Q.** For “QVQLVESGGGLVQAGGSLRLSCAASGFIFDLYAMGWYRQAPGKERELVAAITTSGGTTYYADSVKGRFTISRDNAKNTVYLQMNSLKPEDTAVYYCAARRYSWYYYWGQGTQVTVSS”, which “polyreactivity (PSR sort gate)” value is on record?
**A.** high polyreactivity

**Q.** For “QVQLVESGGGLVQAGGSLRLSCAASGFIFDPYGMGWYRQAPGKERELVAAITASGGTTYYADSVKGRFTISLDYANNTVYLQLNSLKPEDTAVYYCAAAVWYRGWYRYDYWGQGTKVTVSS”, which “polyreactivity (PSR sort gate)” value is on record?
**A.** low polyreactivity

**Q.** Which “polyreactivity (PSR sort gate)” value does the source give for “QVQLVESGGGLVQAGGSLRLSCAASGFIFDQYAMGWYRQAPGKERELVATITSDGDTYYADSVKGRFTISRDNAKNTVYLQMNSLKPDDTAFYYFAVDPGPYTTGYEYWGQGTQLTVSS” here?
**A.** low polyreactivity

**Q.** With “QVQLVESGGGLVQAGGSLRLSCAASGFIFDRYAMGWSRQAPGKERELVAAITGSGGSTYYADSVKGRFTISRDNAKNTVYFQMNSLKPEDTAVYYSAAESYDYFALFYVSIPYYYWGQGTQVTVSS” as the sequence, how does the “polyreactivity (PSR sort gate)” value read?
**A.** high polyreactivity

**Q.** For “QVQLVESGGGLVQAGGSLRLSCAASGFIFDSNAMGWYRQAPGKERELVAAISRRGGSTYYADSVKGRFTISRDNAKNTVYLQMNSLKPEDTAVYYCNAEYGSHVKYGYWGQGTQVTVSS”, which “polyreactivity (PSR sort gate)” value is on record?
**A.** high polyreactivity

**Q.** With “QVQLVESGGGLVQAGGSLRLSCAASGFIFDSYAMGWYRQAPGKERELVAAISWSGGRTYYADSVKWRFTISRDNAKNTVYLQMNSLKPEDTAVYYCNVRTKLSTSYDYWGQGTQVTVSS” as the sequence, how does the “polyreactivity (PSR sort gate)” value read?
**A.** high polyreactivity

**Q.** Which “polyreactivity (PSR sort gate)” value does the source give for “QVQLVESGGGLVQAGGSLRLSCAASGFIFDSYAMGWYRQAPGKVRELVATISRRGSSTYYADSVKGRFTISRDNAKNTVYLQMNSLKPEDNAVYYCAAGSISYYYKLYWGGYWGQGTQVTVSS” here?
**A.** high polyreactivity

**Q.** With “QVQLVESGGGLVQAGGSLRLSCAASGFIFDYNAMGWYRQAPGKERELVAAIDITGGSTYYADSVKGRFTISRDNAKNTVYLQMNSLKPEDTAVYYCNRPYYIWVYSGYSGYDYWGQGTQVTVSS” as the sequence, how does the “polyreactivity (PSR sort gate)” value read?
**A.** low polyreactivity

**Q.** For “QVQLVESGGGLVQAGGSLRLSCAASGFIFDYNAMGWYRQAPGKERELVAAISISGGGTYYADSVKGRFTISRDNAKNTVYLQMNSLKPEDTAVYYCATAGRYDAYDYWGQGTQVTVSS”, which “polyreactivity (PSR sort gate)” value is on record?
**A.** low polyreactivity

**Q.** Which “polyreactivity (PSR sort gate)” value does the source give for “QVQLVESGGGLVQAGGSLRLSCAASGFIFDYYAMGWYRQAPGKERELVAAISRGGSTYYADSVKGRFTISRDNAKNTVYLQMKSLKPEDTAVYYCKAMSYHFWEFDYWGQGTQVTVSS” here?
**A.** high polyreactivity

**Q.** With “QVQLVESGGGLVQAGGSLRLSCAASGFIFDYYAMGWYRQAPGKERELVAAITSRGGSTYYADSVKGRFTISRDNAKNTVYLQMNSLKPEDTAVYYCAARRRYAEYNYWGQGTQVTVSS” as the sequence, how does the “polyreactivity (PSR sort gate)” value read?
**A.** high polyreactivity

**Q.** For “QVQLVESGGGLVQAGGSLRLSCAASGFIFDYYAMGWYRQAPGKERELVAGISNGDTTYYADSVKGRFTISRDNAKNTVYLQMNSLKPEDTAVYYCNAKPFYWVLGGYDYWGQGTQVTVSS”, which “polyreactivity (PSR sort gate)” value is on record?
**A.** low polyreactivity

**Q.** With “QVQLVESGGGLVQAGGSLRLSCAASGFIFDYYAMGWYRQAPGKERELVAGISWSGGSTYYADSVKGRFTISRDNAKNTVYLQMNSLKPEDTAVYYCNAEYSVPFYLYYYWGQGTQVTVSS” as the sequence, how does the “polyreactivity (PSR sort gate)” value read?
**A.** low polyreactivity

**Q.** Which “polyreactivity (PSR sort gate)” value does the source give for “QVQLVESGGGLVQAGGSLRLSCAASGFIFDYYAMGWYRQAPGKERELVATISSSGGSTYYADSVKGRFTISRDNAKNTVYLQMNSLKPEDTAVYYCATGYTWVADSWEYYYWGQGTQVTVSS” here?
**A.** low polyreactivity

**Q.** With “QVQLVESGGGLVQAGGSLRLSCAASGFIFETNAMGWYRQAPGKERELVAAISSRGGSTYYADSVKGRFTISRDNAKNTVYLQMNSLKPEDTAVYYCAAKLVVSYGQEYDYWGQGTHVTVSS” as the sequence, how does the “polyreactivity (PSR sort gate)” value read?
**A.** low polyreactivity

**Q.** Which “polyreactivity (PSR sort gate)” value does the source give for “QVQLVESGGGLVQAGGSLRLSCAASGFIFEWNGMGWYRQAPGKERELVAAITWSGGSTYYADSVKGRFTISRDNAKNTVYLQMISLKPEDTAVYYCAADFPEYYLPYDNWGQGTQVTVSS” here?
**A.** low polyreactivity

**Q.** For “QVQLVESGGGLVQAGGSLRLSCAASGFIFFAYAMGWYRQAPGKERELVAAISRTGGSTYYADSVKGRFTISRDNAKNTVYLEMNSLKPEDTAVYYCAAVVSRTYQWWTYDYWGQGTQVTVSS”, which “polyreactivity (PSR sort gate)” value is on record?
**A.** high polyreactivity

**Q.** With “QVQLVESGGGLVQAGGSLRLSCAASGFIFFAYAMGWYRQAPGKERELVAAISSSGTRTYYADSVKGRFTISRDNAKNTVYLQMNSLKPEDTAVYYCARYIPVYTREREYNYWGQGTQVTVSS” as the sequence, how does the “polyreactivity (PSR sort gate)” value read?
**A.** high polyreactivity

**Q.** Which “polyreactivity (PSR sort gate)” value does the source give for “QVQLVESGGGLVQAGGSLRLSCAASGFIFFGEYVMGWYRQAPGKERELVAAITWSGGSTSYADSVKGRFTISRDNAKNTVYLQMNSLKPEDTAVYYCNAVSHFSTAIEFDYWGQGTQVTVSS” here?
**A.** low polyreactivity

**Q.** For “QVQLVESGGGLVQAGGSLRLSCAASGFIFFGEYVRGWYRQAPRKEREFVAAITDSDGSTYYADSVKGRFTISRDNAKNTVYLQMNSLKPEDTAVYYCAAERVYSDIDYWGKGTQVTVSS”, which “polyreactivity (PSR sort gate)” value is on record?
**A.** low polyreactivity

**Q.** With “QVQLVESGGGLVQAGGSLRLSCAASGFIFFGYAMGWYRQAPGKERELVAAITSGGSTYYADSVKGRFTISRDNAKNTVYLQMNSLKPEDTAVYYCAAVRWYGSKRYGYWGQGTQVTVSS” as the sequence, how does the “polyreactivity (PSR sort gate)” value read?
**A.** high polyreactivity
